# Data taken from the supplement of paper PMC9112550, “Optimization of the antimicrobial peptide Bac7 by deep mutational scanning” (BMC Biology, 2022).
# Test system: Escherichia coli TOP10
# Test: shrunken log2 fold change of peptide-encoding DNA abundance (4.5 h post-induction vs induction); higher = less antimicrobial activity (less host growth inhibition)
# Details: time post-induction: 4.5 h; library: site-saturation at positions 5, 18, 19, 20
# 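Also: peptides expressed intracellularly from a pBAD plasmid library in pooled LB shake-flask culture, induced with 0.3% L-arabinose, DNA abundance read by NGS, three biological replicates, DESeq2 with apeglm shrinkage.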
row,Sequence,shrunken log2 fold change
1,RRIRMRPPRLPRPRPRPPREPRP,1.19
2,RRIRPRPPRLPRPRPRPWESPRP,0.0303
3,RRIRERPPRLPRPRPRPDIWPRP,-0.0258
4,RRIRYRPPRLPRPRPRPLCDPRP,-0.12
5,RRIRNRPPRLPRPRPRPYHSPRP,-0.654
6,RRIRARPPRLPRPRPRPTCMPRP,0.407
7,RRIRNRPPRLPRPRPRPFANPRP,-0.0288
8,RRIRYRPPRLPRPRPRPQRVPRP,-0.393
9,RRIRLRPPRLPRPRPRPEGTPRP,0.241
10,RRIRIRPPRLPRPRPRPGARPRP,0.251
11,RRIRTRPPRLPRPRPRPEHAPRP,-0.108
12,RRIRARPPRLPRPRPRPKHWPRP,0.593
13,RRIRCRPPRLPRPRPRPARKPRP,0.21
14,RRIRIRPPRLPRPRPRPKAYPRP,-0.124
15,RRIRTRPPRLPRPRPRPAAMPRP,0.154
16,RRIRIRPPRLPRPRPRPECMPRP,-0.428
17,RRIRFRPPRLPRPRPRPGGHPRP,-0.00918
18,RRIRHRPPRLPRPRPRPCHNPRP,-0.261
19,RRIRERPPRLPRPRPRPELDPRP,0.0389
20,RRIRDRPPRLPRPRPRPHSSPRP,0.217
21,RRIRYRPPRLPRPRPRPVHYPRP,-0.0657
22,RRIRVRPPRLPRPRPRPHWIPRP,-0.512

row,Sequence,shrunken log2 fold change
1,RRIRHRPPRLPRPRPRPEVKPRP,0.104
2,RRIRFRPPRLPRPRPRPLFTPRP,-0.239
3,RRIRHRPPRLPRPRPRPKAKPRP,0.00599
4,RRIRYRPPRLPRPRPRPWGLPRP,-0.0143
5,RRIRERPPRLPRPRPRPEWHPRP,0.0244
6,RRIRMRPPRLPRPRPRPIEMPRP,-0.0608
7,RRIRGRPPRLPRPRPRPYWNPRP,-0.39
8,RRIRMRPPRLPRPRPRPWIFPRP,0.0735
9,RRIRERPPRLPRPRPRPESIPRP,0.089
10,RRIRRRPPRLPRPRPRPPNEPRP,0.804
11,RRIRQRPPRLPRPRPRPRYIPRP,-0.706
12,RRIRKRPPRLPRPRPRPIFIPRP,-0.173
13,RRIRGRPPRLPRPRPRPPCHPRP,0.429
14,RRIRYRPPRLPRPRPRPKTCPRP,-0.0102
15,RRIRYRPPRLPRPRPRPAVSPRP,0.0627
16,RRIRIRPPRLPRPRPRPLLWPRP,0.0456
17,RRIRPRPPRLPRPRPRPFKEPRP,-0.54
18,RRIRNRPPRLPRPRPRPGPDPRP,0.295
19,RRIRIRPPRLPRPRPRPKIYPRP,-0.581
20,RRIRMRPPRLPRPRPRPIKYPRP,0.188
21,RRIRMRPPRLPRPRPRPKCGPRP,0.574
22,RRIRIRPPRLPRPRPRPVVPPRP,-0.215

row,Sequence,shrunken log2 fold change
1,RRIRARPPRLPRPRPRPEPWPRP,0.742
2,RRIRNRPPRLPRPRPRPFSRPRP,-0.000753
3,RRIRQRPPRLPRPRPRPSDVPRP,-0.0706
4,RRIRWRPPRLPRPRPRPKMEPRP,0.577
5,RRIRFRPPRLPRPRPRPVIFPRP,0.774
6,RRIRRRPPRLPRPRPRPLPQPRP,0.436
7,RRIRDRPPRLPRPRPRPQMMPRP,-0.211
8,RRIRKRPPRLPRPRPRPSWVPRP,-0.0457
9,RRIRYRPPRLPRPRPRPTNLPRP,-0.661
10,RRIRHRPPRLPRPRPRPTTNPRP,-0.348
11,RRIRSRPPRLPRPRPRPKVDPRP,0.093
12,RRIRLRPPRLPRPRPRPCKWPRP,0.117
13,RRIRFRPPRLPRPRPRPGITPRP,-0.45
14,RRIRHRPPRLPRPRPRPRGTPRP,-0.164
15,RRIRIRPPRLPRPRPRPCIMPRP,-0.466
16,RRIRVRPPRLPRPRPRPIIKPRP,-0.351
17,RRIRQRPPRLPRPRPRPTQQPRP,0.0196
18,RRIRLRPPRLPRPRPRPTKMPRP,0.0743
19,RRIRWRPPRLPRPRPRPRVAPRP,0.699
20,RRIRMRPPRLPRPRPRPVYWPRP,0.0687
21,RRIRYRPPRLPRPRPRPGWYPRP,-0.344
22,RRIRIRPPRLPRPRPRPHCKPRP,-0.147

row,Sequence,shrunken log2 fold change
1,RRIRYRPPRLPRPRPRPTYQPRP,-0.00459
2,RRIRFRPPRLPRPRPRPAYTPRP,-0.876
3,RRIRWRPPRLPRPRPRPEETPRP,0.0603
4,RRIRVRPPRLPRPRPRPARNPRP,0.414
5,RRIRKRPPRLPRPRPRPCLLPRP,-0.037
6,RRIRERPPRLPRPRPRPLKMPRP,-0.175
7,RRIRRRPPRLPRPRPRPIKYPRP,0.0338
8,RRIRFRPPRLPRPRPRPIKQPRP,-0.0488
9,RRIRRRPPRLPRPRPRPDELPRP,0.614
10,RRIRMRPPRLPRPRPRPNQNPRP,0.079
11,RRIRFRPPRLPRPRPRPDIRPRP,0.0306
12,RRIRVRPPRLPRPRPRPACFPRP,0.169
13,RRIRRRPPRLPRPRPRPPITPRP,0.13
14,RRIRQRPPRLPRPRPRPKTMPRP,-0.0635
15,RRIRDRPPRLPRPRPRPMFNPRP,-0.0203
16,RRIRSRPPRLPRPRPRPQHSPRP,-0.658
17,RRIRIRPPRLPRPRPRPGEMPRP,-0.00568
18,RRIRVRPPRLPRPRPRPWRPPRP,0.328
19,RRIRIRPPRLPRPRPRPYRFPRP,-0.636
20,RRIRNRPPRLPRPRPRPRGRPRP,0.316
21,RRIRERPPRLPRPRPRPQNNPRP,-0.911
22,RRIRCRPPRLPRPRPRPHNSPRP,-0.273

row,Sequence,shrunken log2 fold change
1,RRIRRRPPRLPRPRPRPHEYPRP,-0.0758
2,RRIRERPPRLPRPRPRPTEYPRP,-0.123
3,RRIRFRPPRLPRPRPRPFPTPRP,-0.0582
4,RRIRERPPRLPRPRPRPCCFPRP,-0.248
5,RRIRYRPPRLPRPRPRPEHNPRP,-0.0212
6,RRIRTRPPRLPRPRPRPQDYPRP,0.0537
7,RRIRDRPPRLPRPRPRPHADPRP,-0.0841
8,RRIRQRPPRLPRPRPRPHFGPRP,-0.0794
9,RRIRARPPRLPRPRPRPIKQPRP,-0.0628
10,RRIRFRPPRLPRPRPRPMLGPRP,-0.055
11,RRIRMRPPRLPRPRPRPRCNPRP,0.105
12,RRIRKRPPRLPRPRPRPLWIPRP,0.134
13,RRIRRRPPRLPRPRPRPTYDPRP,0.0415
14,RRIRVRPPRLPRPRPRPHQYPRP,-0.278
15,RRIRPRPPRLPRPRPRPDASPRP,0.37
16,RRIRRRPPRLPRPRPRPNTKPRP,0.191
17,RRIRMRPPRLPRPRPRPPPCPRP,1.73
18,RRIRERPPRLPRPRPRPQELPRP,-0.755
19,RRIRRRPPRLPRPRPRPNNQPRP,-0.0752
20,RRIRMRPPRLPRPRPRPHNTPRP,-0.168
21,RRIRHRPPRLPRPRPRPPQQPRP,0.6
